Measurements taken from patent publication US20230132604A1 (KEYMED BIOSCIENCES, published 2023).
Where a chain is given by its changes, count along the chain named.

T1: recombinant human CD38 extracellular region protein (Val 43-Ile 300) with N-terminal 6×his tag (human, UniProt P28907 43-300)
T1 construct: range 43-300; Expressed in HEK293.6E cells and purified on a nickel chelate column; also called human CD38 recombinant protein; human CD38 protein
T1 sequence: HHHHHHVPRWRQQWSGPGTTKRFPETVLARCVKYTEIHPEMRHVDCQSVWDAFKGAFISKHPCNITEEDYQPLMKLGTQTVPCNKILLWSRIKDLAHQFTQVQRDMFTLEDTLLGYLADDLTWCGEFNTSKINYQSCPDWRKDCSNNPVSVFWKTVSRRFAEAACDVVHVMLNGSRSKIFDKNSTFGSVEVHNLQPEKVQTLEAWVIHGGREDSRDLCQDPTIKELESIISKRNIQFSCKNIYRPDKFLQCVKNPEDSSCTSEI

T2: human CD38 expressed on tumor cells (Daudi, NALM-6, Ramos.2G6.4C10, TALL-1) (human, UniProt P28907 1-300)
T2 construct: whole, on cells; Endogenous CD38 on human tumor cell lines; also called CD38 molecules expressed on Daudi; CD38 on Daudi cells
T2 sequence (looked up): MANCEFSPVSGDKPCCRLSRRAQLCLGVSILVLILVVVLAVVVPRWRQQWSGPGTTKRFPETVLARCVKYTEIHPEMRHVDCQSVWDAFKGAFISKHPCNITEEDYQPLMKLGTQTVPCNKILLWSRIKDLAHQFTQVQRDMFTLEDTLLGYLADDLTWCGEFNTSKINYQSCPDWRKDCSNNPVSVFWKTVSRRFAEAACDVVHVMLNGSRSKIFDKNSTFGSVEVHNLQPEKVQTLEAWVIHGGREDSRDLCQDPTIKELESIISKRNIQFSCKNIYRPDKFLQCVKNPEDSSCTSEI

B1: chimeric anti-human CD38 antibody 48H1-B11 (antibody, V domains shown)
VH: EVQLKQSGPGLMQPSQSLSITCTVSGFSLTSYGIHWLRQSPGKGLEWLGVIWRGGSTDYNAAFMSRLSITKDNSKSQVFFKMNSLQGDDTAIYYCAKGKVTTGFYFDFWGQGTTLTVSS
VL: DIQMTQSSSSFSVSLGDRVTITCKASEDIYNRLVWYQQKPGNAPGLLISGVTSLETGVPSRFSGSGSGKDYTLTITSLQTEDVATYYCQQYWSTPYTFGGGTKLEIK
notes: also called chimeric antibody 48H1-B11; mAb48H1-B11 (murine parent)
B2: humanized CD38 antibody Ab031 (h48H1-VHv7 / h48H1-VKv7) (antibody, V domains shown)
VH: QVQLQESGPGLVKPSETLSLTCTVSGFSLTSYGIHWIRQPPGKGLEWIGVIWRGGSTDYNPSLKSRVTISKDNSKSQVSLKLSSVTAADTAVYYCAKGKVTTGFYFDFWGQGTLVTVSS
VL: EIVMTQSPPTLSLSPGERVTLSCRASEDIYNRLVWYQQKPGQAPRLLISGVTSLETSIPARFSGSGSGTDYTLTISSLQPEDFAVYYCQQYWSTPYTFGQGTKVEIK
notes: also called CM313-1
B3: humanized CD38 antibody Ab033 (h48H1-VHv8 / h48H1-VKv7) (antibody, V domains shown)
VH: B2 VH with I37L, N73T
VL: B2 VL
notes: also called CM313-2

Key:
[1] = target: T1, recombinant human CD38 extracellular …; experiment: ELISA, plate coated with human CD38 protein, detection with HRP goat anti-human IgG Fc, OD450
[2] = target: T2, human CD38 expressed on tumor cells …; experiment: flow cytometry (FACS) on TALL-1 cells
Method: (§1) Different cells in logarithmic phase were blocked with 3% BSA for 30 minutes, and then plated into a U-shaped 96-well plate at 5×10⁴ cells/100 μL; centrifugation was conducted at 1100 rpm for 3 minutes, the supernatant was discarded, the cells were patted and loosed gently, 50 μL of serially diluted antibody (diluted 3-fold in 5 series, with an initial concentration of 30 μg/mL) was added to each well, and the mixture was incubated at 4° C. for 1 hour. After the incubation, 180 μL 0.5% BSA was added to each well, wash 3 times, 30 μL/well of secondary antibody Alexa Fluro 647 anti-human IgG (Jackson ImmunoResearch, Cat: 109-606-170) was added, and the mixture was incubated at 4° C. for 45 minutes. After the incubation, each well was washed 3 times with 180 μL 0.5% BSA, and finally resuspended in 50 μL PBS each well for iQue (Intellicyt, USA) assay.

[3] = target: T1, recombinant human CD38 extracellular …; experiment: ELISA, plate coated with human CD38 protein, anti-human IgG Fc-HRP detection
Method: A 96-well plate was coated with human CD38 protein and incubated overnight at 4° C. The solution in wells were then discarded, washed 3 times with wash buffer, and blocked by the addition of 2% milk in PBS for 60 minutes. After washing 3 times with washing buffer, 100 μL of antibodies at different dilutions were added to each well, and the mixture was incubated at 37° C. for 1 hour; after washing 3 times with washing buffer, HPR-labeled goat anti-human IgG Fc was diluted at 1:5000 with 0.5% BSA, and the mixture was incubated at room temperature for 1 hour; after washing 3 times with washing buffer, 100 μL of TMB substrate solution was added for color development; after reaction at 37° C. for 10 minutes, the reaction was terminated with 50 μL of 2M sulfuric acid solution and the absorbance was read at 450 nm.

[4] = target: T2, human CD38 expressed on tumor cells …; experiment: flow cytometry (FACS) on NALM-6 cells
Method: as §1

[5] = target: T1, recombinant human CD38 extracellular …; experiment: SPR (Biacore), antibody captured on protein A chip, human CD38 recombinant protein as analyte, Langmuir 1:1 fit
[6] = target: T2, human CD38 expressed on tumor cells …; experiment: flow cytometry (FACS) on Daudi cells
Method: as §1

[7] = target: T2, human CD38 expressed on tumor cells …; experiment: flow cytometry (FACS) on Ramos.2G6.4C10 cells
Method: as §1

Row | Binder | EC50 (read off the curve) [1] | EC50 [2] | EC50 [3] | EC50 [4] | Kd [5] | koff [5] | kon [5] | EC50 [6] | EC50 [7]
1 | B1 | ~0.1 nM | – | – | – | – | – | – | – | –
2 | B2 | – | 0.41 nM | 0.51 nM | 0.37 nM | 0.278 nM | 0.000556 s⁻¹ | 2e+06 M⁻¹ s⁻¹ | 0.44 nM | 0.42 nM
3 | B3 | – | 0.34 nM | 4.24 nM | 0.49 nM | 1.43 nM | 0.00532 s⁻¹ | 3.71e+06 M⁻¹ s⁻¹ | 0.54 nM | 0.58 nM
